Earlier results, collected in PMC4872106.

Biological target: M.EcoKI (Escherichia coli) (UniProt P08957)
Conditions: cited from earlier work

Ocr, sequence (P03775 whole entry): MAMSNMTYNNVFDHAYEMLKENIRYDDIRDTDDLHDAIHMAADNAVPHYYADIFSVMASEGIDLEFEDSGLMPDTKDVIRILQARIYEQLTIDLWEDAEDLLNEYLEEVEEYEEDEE
M.EcoKI (Escherichia coli), sequence (P08957 whole entry, chain 1 of 2): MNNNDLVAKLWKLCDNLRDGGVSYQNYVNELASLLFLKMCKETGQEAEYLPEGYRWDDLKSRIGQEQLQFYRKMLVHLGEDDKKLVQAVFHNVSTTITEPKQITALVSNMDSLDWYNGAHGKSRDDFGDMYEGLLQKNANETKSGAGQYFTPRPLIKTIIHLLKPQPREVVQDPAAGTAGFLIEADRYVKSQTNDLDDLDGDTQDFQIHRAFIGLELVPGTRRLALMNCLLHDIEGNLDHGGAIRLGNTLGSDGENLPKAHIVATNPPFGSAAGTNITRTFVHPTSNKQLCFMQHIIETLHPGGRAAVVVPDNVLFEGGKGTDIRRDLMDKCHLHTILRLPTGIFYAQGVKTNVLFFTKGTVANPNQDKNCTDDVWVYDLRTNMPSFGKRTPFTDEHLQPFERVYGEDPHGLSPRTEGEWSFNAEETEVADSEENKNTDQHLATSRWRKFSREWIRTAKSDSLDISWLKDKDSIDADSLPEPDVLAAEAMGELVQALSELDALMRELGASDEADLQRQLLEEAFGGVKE
M.EcoKI (Escherichia coli), sequence (P05719 2-464, chain 2 of 2, further chain): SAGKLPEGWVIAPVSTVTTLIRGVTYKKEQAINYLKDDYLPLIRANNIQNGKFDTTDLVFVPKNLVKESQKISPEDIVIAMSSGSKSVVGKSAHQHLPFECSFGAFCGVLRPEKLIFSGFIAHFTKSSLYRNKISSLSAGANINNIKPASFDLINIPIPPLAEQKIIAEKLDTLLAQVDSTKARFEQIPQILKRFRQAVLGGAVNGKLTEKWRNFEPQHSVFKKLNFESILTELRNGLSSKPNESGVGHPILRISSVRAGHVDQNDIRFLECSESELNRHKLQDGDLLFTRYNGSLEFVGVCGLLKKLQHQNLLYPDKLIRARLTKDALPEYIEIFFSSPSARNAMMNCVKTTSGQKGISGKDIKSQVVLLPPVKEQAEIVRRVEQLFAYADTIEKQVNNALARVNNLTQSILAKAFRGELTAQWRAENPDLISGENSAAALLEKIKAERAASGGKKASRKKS

In the case of Ocr (from UniProt P03775), the Kd is given as 0.05 nM.
